B1: HDV Ribozyme (parent)
chain: GGCCGGCAUGGUCCCAGCCUCCUCGCUGGCGCCGGCUGGGCAACAUUCCGAGGGGACCGUCCCCUCGGUAAUGGCGAAUGGGACCCA

From the RNAGym collection of RNA variant scans (doi:10.7554/elife.80360) come the findings set out here.

This series covers variants of B1. Put plainly: self-cleavage, relative activity (ratio to wild type); higher = more cleavage; co-transcriptional.
With GGCCGGCAUGGUCCCAGCCUCCUGGCUGGCGCCGGCUGGGCAACAUUCCGAGGGGACCGUCCCCUCGGUAAUGGCGAAUGCGACCCA, the self-cleavage was found to be 0.032.
Then GGCCGGCAUGGUCCCAGCCUCCUGGCUGGCGCCGGCUGGGCAACAUUCCGAGGGGACCGUCCCCUCGGAAAUGGCGAAUGGGACCCA, with 0.204; and GGCCGGCAUGGUCCCAGCCUCCUUGCUGGCGCCGGCUGGGCAACAUUCCGAGGGGACCGUCCCCUCGGUAAUGGCGGAUGGGACCCA, with 0.53; and GGCCGGCAUGGUCCCAGCCUCCUUGCUGGCGCCGGCUGGGCAACAUUCCGAGGGGACCGUCCCCUCGGUAAUGGCGUAUGGGACCCA, with 0.0791.
Then GGCCGGCAUGGUCCCAGCCUCCUGGCUGGCGCCGGCUGGGCAACAUUCCGAGGGAACCGUCCCCUCGGUAAUGGCGAAUGGGACCCA, with 0.166; and GGCCGGCAUGGUCCCAGCCUCCUUGGUGGCGCCGGCUGGGCAACAUUCCGAGGGGACCGUCCCCUCGGUAAUGGCGAAUGGGACCCA, with 0.615.
As for GGCCGGCAUGGUCCCAGCCUCCUUGUUGGCGCCGGCUGGGCAACAUUCCGAGGGGACCGUCCCCUCGGUAAUGGCGAAUGGGACCCA, the figure is 0.867; as for GGCCGGCAUGGUCCCAGCCUCCUGGCUGGCGCCGGCUGGGCAACAUUCCGAGGGGACCGUCCCCUCGAUAAUGGCGAAUGGGACCCA, 0.22.
Take GGCCGGCAUGGUCCCAGCCUCCUGGCUGGCGCCGGCUGGGCAACAUUCCGAGGGGACCGACCCCUCGGUAAUGGCGAAUGGGACCCA: the self-cleavage was determined as 0.264.
As for GGCCGGCAUGGUCCCAGCCUCCUGGCUGGCGCCGGCUGGGCAACAUUCCGAGGGGACCGCCCCCUCGGUAAUGGCGAAUGGGACCCA, the self-cleavage was found to be 0.277.
As for GGCCGGCAUGGUCCCAGCCUCCUGCCUGGCGCCGGCUGGGCAACAUUCCGAGGGGACCGUCCCCUCGGUAAUGGCGAAUGGGACCCA, the figure is 0.145; as for GGCCGGCAUGGUCCCAGCCUCCUGGCUGGCGCCGACUGGGCAACAUUCCGAGGGGACCGUCCCCUCGGUAAUGGCGAAUGGGACCCA, 0.124.
Then GGCCGGCAUGGUCCCAGCCUCCUGGCUGGCGCCGCCUGGGCAACAUUCCGAGGGGACCGUCCCCUCGGUAAUGGCGAAUGGGACCCA, with 0.0332; and GGCCGGCAUGGUCCCAGCCUCCUUGCUGGCGCCGGCUGGGCAACAUUCCGAGGGGACCGUCCCCUCGGUCAUGGCGAAUGGGACCCA, with 0.573; and GGCCGGCAUGGUCCCAGCCUCCUUGCUGGCGCCGGCUGGGCAACAUUCCGAGGGGACCGUCCCCUCGGUGAUGGCGAAUGGGACCCA, with 0.706.
Then GGCCGGCAUGGUCCCAGCCUCCUGGCUGGCGCCGGCUGGGCAACAUUCCGAGGGGACCGUCCCCUCGGUAAUGCCGAAUGGGACCCA, with 0.109; and GGCCGGCAUGGUCCCAGCCUCCUGGCUGGCGCCGGCUGGGCAACAUUCCGAGGGGACCGUCCCCUCGGUAAUGACGAAUGGGACCCA, with 0.124.
GGCCGGCAUGGUCCCAGCCUCCUUGCUGGCGCCGGUUGGGCAACAUUCCGAGGGGACCGUCCCCUCGGUAAUGGCGAAUGGGACCCA: the self-cleavage was 0.402.
As for GGCCGGCAUGGUCCCAGCCUCCUUGCUGGCGCCGGGUGGGCAACAUUCCGAGGGGACCGUCCCCUCGGUAAUGGCGAAUGGGACCCA, the figure is 0.141; as for GGCCGGCAUGGUCCCAGCCUCCUUGCUGGCGCCGGCUGGGCAACAUUCCGAGGGGACCGUCCCCUCGGUAAUGGCGAAUGGGACCCC, 0.739; as for GGCCGGCAUGGUCCCAGCCUCCUGGCUGGCGCCGGCUGGUCAACAUUCCGAGGGGACCGUCCCCUCGGUAAUGGCGAAUGGGACCCA, 0.17.
Take GGCCGGCAUGGUCCCAGCCUCCUUGCUGGCGCCGGCUGGGCUACAUUCCGAGGGGACCGUCCCCUCGGUAAUGGCGAAUGGGACCCA: the self-cleavage is 0.17.
As for GGCCGGCAUGGUCCCAGCCUCCUUGCUGGCGCCGGCUGGGCCACAUUCCGAGGGGACCGUCCCCUCGGUAAUGGCGAAUGGGACCCA, the self-cleavage was found to be 0.125.
Then GGCCGGCAUGGUCCCAGCCUCCUGGCUGGCGCCGGCUGGGCAACAUUCCGACGGGACCGUCCCCUCGGUAAUGGCGAAUGGGACCCA, with 0.172.
As for GGCCGGCAUGGUCCCAGCCUCCUUGCUGGCGCCGGCUGGGCAACAUUCCGAGGGGACCGUCCCCUCGGUAAUGGCGACUGGGACCCA, the self-cleavage is 0.196.
In the case of GGCCGGCAUGGUCCCAGCCUCCUUGCUGGCGCCGGCUGGGCAACAUUCCGAGGGGCCCGUCCCCUCGGUAAUGGCGAAUGGGACCCA, the self-cleavage was 0.973.
On to GGCCGGCAUGGUCCCAGCCUCCUUGCUGGCGCCGGCUGGGCAACAUUCCGAGGGGUCCGUCCCCUCGGUAAUGGCGAAUGGGACCCA, for which the self-cleavage worked out at 0.401.
As for GGCCGGCAUGGUCCCAGCCUCCUGGCUGGCCCCGGCUGGGCAACAUUCCGAGGGGACCGUCCCCUCGGUAAUGGCGAAUGGGACCCA, the figure is 0.0563; as for GGCCGGCAUGGUCCCAGCCUCCUGGCUGGCGCCGGCUGGGCAACAUUCCGAGGGGACCGUCCCCUCGGUAAUGGCGAAUGGUACCCA, 0.0302; as for GGCCGGCAUGGUCCCAGCCUCCUUGCUGGCGCCGGCUGGGCAACAUUCCGAGGGGACCGUCCCCUCGGUAAUGGCGAAUGGGACCCA, 0.73.
As for GGCCGGCAUGGUCCCAGCCUCCUGGCUGGCGCCGGCUGGGCAACAUUCCGAGAGGACCGUCCCCUCGGUAAUGGCGAAUGGGACCCA, the figure is 0.18; as for GGCCGGCAUGGUCCCAGCCUCCUGGCUGGCGCCGGCUGGGCAACAUUCCGAGCGGACCGUCCCCUCGGUAAUGGCGAAUGGGACCCA, 0.0817.
